Results taken from PMC5814221.

Molecular target: Growth arrest-specific protein 6 (GAS6) (UniProt Q63772)
Chain of UniProt Q63772 (Q63772 28-674): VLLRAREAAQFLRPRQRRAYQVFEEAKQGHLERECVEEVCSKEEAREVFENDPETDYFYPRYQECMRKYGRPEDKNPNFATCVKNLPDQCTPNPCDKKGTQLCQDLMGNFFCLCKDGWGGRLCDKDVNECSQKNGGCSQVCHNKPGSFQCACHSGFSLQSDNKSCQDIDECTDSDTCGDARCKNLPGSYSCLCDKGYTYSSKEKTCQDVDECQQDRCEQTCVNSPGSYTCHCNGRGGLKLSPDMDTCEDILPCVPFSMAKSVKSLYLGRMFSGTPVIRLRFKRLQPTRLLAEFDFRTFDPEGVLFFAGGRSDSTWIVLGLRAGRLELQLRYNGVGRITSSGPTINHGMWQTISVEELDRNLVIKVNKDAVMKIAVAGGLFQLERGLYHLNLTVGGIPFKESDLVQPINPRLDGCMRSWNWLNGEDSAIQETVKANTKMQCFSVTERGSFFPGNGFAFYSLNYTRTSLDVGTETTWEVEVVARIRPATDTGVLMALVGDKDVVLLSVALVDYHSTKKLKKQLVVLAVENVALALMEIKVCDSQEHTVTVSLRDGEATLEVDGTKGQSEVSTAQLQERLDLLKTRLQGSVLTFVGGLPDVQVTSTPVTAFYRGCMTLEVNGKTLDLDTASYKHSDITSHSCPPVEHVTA

- proliferation of RSC96 cells (WST-1) treated with AXL-Fc, percent decrease after 24 h, 48 h and 72 h (31.3%, 35.1%, 43.1%): 43.1 % decreased
Substance: AXL-Fc protein fragment (soluble form of AXL) (Fc fusion)
